From patent US20210403579A1 (DELINIA, published 2021)
Positions count from the first letter of the chain named. Values belong to the binder of their own block, whether it stands above or below them.

Biological target: T1, Human ST2 (human, UniProt Q01638 19-328, limits assumed)
T1 construct: also called human ST2 protein; Interleukin 1 receptor-like 1
T1 sequence (looked up): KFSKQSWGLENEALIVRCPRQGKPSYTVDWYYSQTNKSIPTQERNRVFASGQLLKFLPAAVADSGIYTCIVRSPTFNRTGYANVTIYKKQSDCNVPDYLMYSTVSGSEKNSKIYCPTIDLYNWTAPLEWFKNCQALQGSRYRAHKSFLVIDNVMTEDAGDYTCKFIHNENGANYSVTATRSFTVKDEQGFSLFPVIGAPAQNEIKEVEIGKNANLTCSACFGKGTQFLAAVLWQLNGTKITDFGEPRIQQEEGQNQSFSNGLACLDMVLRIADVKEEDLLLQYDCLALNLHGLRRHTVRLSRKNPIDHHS
Assay: SPR (Carterra), antibody immobilized, ST2 analyte
Experimental: Binding of the reformatted human ST2 antibodies to the human and mouse ST2 proteins was evaluated by surface plasmon resonance (SPR), using a high throughput antibody screening and characterization platform from Carterra (Salt Lake City, Utah).

Kd: 932 nM
koff: 0.15 s⁻¹
kon: 160000 M⁻¹ s⁻¹
B1: Human ST2 IgG1 Antibody 52 (antibody, V domains shown)
VH: QVQLVQSGAEVKKPGSSVKVSCKASGGTFSNYAISWVRQAPGQGLEWMGWISAYNGNTNYAQKFQGRVTITADESTSTAYMELSSLRSEDTAVYYCARLSTVTTRPYYYYGMDVWGQGTTVTVSS
VL: DIVMTQSPLSLPVTPGEPASISCRSSQSLLHSNGYNYLDWYLQKPGQSPQLLIYAASSLQGGVPDRFSGSGSGTDFTLKISRVEAEDVGVYYCMQGTHWPTFGQGTKVEIKR
notes: IgG1; also called ST2 Antibody 52

Kd: 278 nM
koff: 0.088 s⁻¹
kon: 320000 M⁻¹ s⁻¹
B2: Human ST2 IgG1 Antibody 42 (antibody, V domains shown)
VH: QVQLVQSGAEVKKPGASVKVSCKASGYTFNSHWVHWVRQAPGQGLEWMGWISAYNGNTNYAQKLQGRVTMTRDTSTSTVYMELSSLRSEDTAVYYCASGDYPYYYYGMDVWGQGTTVTVSS
VL: DIQMTQSPSSLSASVGDRVTITCRASQGVANWLAWYQQKPGKAPKLLIYSASNLQSGVPSRFSGSGSGTDFTLTISSLQPEDFATYYCQQSSSFPLTFGQSTRLEIKR
notes: IgG1; also called ST2 Antibody 42

Kd: 269 nM
koff: 0.085 s⁻¹
kon: 320000 M⁻¹ s⁻¹
B3: Human ST2 IgG1 Antibody 49 (antibody, V domains shown)
VH: QVQLVQSGAEVKKPGASVKVSCKASGGTLSSYAISWVRQAPGQGLEWMGGISPYNGKANYAEKLQGRVTMTRDTSTSTVYMELSSLRSEDTAVYYCAIRSIAAREGVYYYYMDVWGKGTTVTVSS
VL: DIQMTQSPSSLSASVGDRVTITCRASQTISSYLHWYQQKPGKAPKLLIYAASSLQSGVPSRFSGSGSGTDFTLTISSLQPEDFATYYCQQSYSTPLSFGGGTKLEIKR
notes: IgG1; also called ST2 Antibody 49

Kd: 81 nM
koff: 0.029 s⁻¹
kon: 360000 M⁻¹ s⁻¹
B4: Human ST2 IgG1 Antibody 54 (antibody, V domains shown)
VH: EVQLLESGGGLVQPGGSLRLSCAASGFTVSSNYMSWVRQAPGKGLEWVSAISGSGGSTYYADSVKGRFTISRDNSKNTLYLQMNSLRAEDTAVYYCARGRFGSRDVWGKGTTVTVSS
VL: not shown
notes: IgG1; also called ST2 Antibody 54

Kd: 413 nM
koff: 0.12 s⁻¹
kon: 300000 M⁻¹ s⁻¹
B5: Human ST2 IgG1 Antibody 47 (antibody, V domains shown)
VH: QVQLVQSGAEVKKPGSSVKVSCKASGYTFTNYYMHWVRQAPGQGLEWMGGIIPIFGTANYAQKFQGRVTITADESTSTAYMELSSLRSEDTAVYYCARGGYYDSSQFDIWGQGTMVTVSS
VL: not shown
notes: IgG1; also called ST2 Antibody 47

Kd: 264 nM
koff: 0.14 s⁻¹
kon: 510000 M⁻¹ s⁻¹
B6: Human ST2 IgG1 Antibody 36 (antibody, V domains shown)
VH: QVQLVQSGAEVKKPGASVKVSCKASGYTFTSYGISWVRQAPGQGLEWMGWIDPNSGGTNYAQKFQGRVTMTRDTSTSTVYMELSSLRSEDTAVYYCARDDWFSGDLDYWGQGTLVTVSS
VL: DIQMTQSPSSLSASVGDRVTITCRASQGIDSWLAWYQQKPGKAPKLLIYAASKLQGGVPSRFSGSGSGTDFTLTISSLQPEDFATYYCQQGYSTPITFGQGTKVDIKR
notes: IgG1; also called ST2 Antibody 36

Kd: 146 nM
koff: 0.024 s⁻¹
kon: 170000 M⁻¹ s⁻¹
B7: Human ST2 IgG1 Antibody 48 (antibody, V domains shown)
VH: EVQLLQSGGGLVQPGGSLRLSCAASEFTFSNAWMSWVRQAPGKGLEWVSTISGTSRYTYYADSVKGRFTISRDNSKNSLYLQMNSLRAEDTAVYYCARDQDGRLDYWGQGTLVTVSS
VL: B6 VL with G28N, D30G, A50R, K53T, G56S, G91S, I96Y, D105E
notes: IgG1; also called ST2 Antibody 48

Kd: 100 nM
koff: 0.024 s⁻¹
kon: 240000 M⁻¹ s⁻¹
B8: Human ST2 IgG1 Antibody 44 (antibody, V domains shown)
VH: EVQLLESGGGLVKPGGSLRLSCAASGFTFSSYWMSWVRQAPGKGLEWVSAISGTAINTYYADSVKGRFTISRDDSKNTLYLQMNSLKTEDTAVYYCARVRRDSSGGGAFDIWGQGTMVTVSS
VL: B6 VL with D30S, S31N, W32N, A34N, K53S, G56T, G91S, I96P, D105E
notes: IgG1; also called ST2 Antibody 44

Kd: 146 nM
koff: 0.0074 s⁻¹
kon: 51000 M⁻¹ s⁻¹
B9: Human ST2 IgG1 Antibody 43 (antibody, V domains shown)
VH: QVQLVQSGAQVKKPGASVKVSCKASGYTFSSYYIHWVRQAPGQGLEWMGWINPHSGGTNYGQEFQGRVTMTRDTSTSTVYMELSSLRSEDTAVYYCARDSSGMGATIGYWGQGTLVTVSS
VL: B6 VL with G28S, I29V, D30N, S31R, W32R, K53T, G56S, Y92N, T94F, D105E
notes: IgG1; also called ST2 Antibody 43

Kd: 970 nM
koff: 0.14 s⁻¹
kon: 150000 M⁻¹ s⁻¹
B10: Human ST2 IgG1 Antibody 56 (antibody, V domains shown)
VH: EVQLLESGGGLVKPGGSLRLSCAASGFTFSSYAMSWVRQAPGKGLEWVSSISSDSYYKYHADSVKGRFTISRDDSKNTLYLQMNSLKTEDTAVYYCAKGADYDFWSGYLDYWGQGTLVTVSS
VL: B6 VL with D30S, W32Y, A50R, K53T, G56S, G91S, S93N, I96W, G101S, D105E
notes: IgG1; also called ST2 Antibody 56

Kd: 138 nM
koff: 0.085 s⁻¹
kon: 620000 M⁻¹ s⁻¹
B11: Human ST2 IgG1 Antibody 37 (antibody, V domains shown)
VH: EVQLLESGGGLVQPGGSLRLSCAASGFTFTDAWMNWVRQAPGKGLEWVSTISVSVGVTYYADSVKGRFTISRDNSKNTLYLQMNSLRAEDTAVYYCATIGSMATIRKGATDAFDIWGQGTLVTVSS
VL: B6 VL with G28R, D30N, W32Y, A34N, K53T, G56S, G91S, I96P, Q100G, D105E
notes: IgG1; also called ST2 Antibody 37

Kd: 691 nM
koff: 0.12 s⁻¹
kon: 180000 M⁻¹ s⁻¹
B12: Human ST2 IgG1 Antibody 40 (antibody, V domains shown)
VH: QVQLVQSGAEVKKPGASVKVSCKASGYTFTSYYIHWVRQAPGQGLEWMGIINPSADTTTYAQQFQGRVTMTRDTSTSTVYMELSSLRSEDTAVYYCARTPGNYGGNSLGYYYYYGMDVWGQGTLVTVSS
VL: B6 VL with G28S, I29V, D30G, S31T, K53T, G56S, G91S, T94S, I96L, Q100P
notes: IgG1; also called ST2 Antibody 40

Kd: 17 nM
koff: 0.0053 s⁻¹
kon: 310000 M⁻¹ s⁻¹
B13: Human ST2 IgG1 Antibody 38 (antibody, V domains shown)
VH: QVQLVQSGAEVKKPGSSVKVSCKASGGTFSSYAISWVRQAPGQGLEWMGTIIPMFGIADYAQKFQGRVTITADESTSTAYMELSSLRSEDTAVYYCARSSRSSSWYNWYFDLWGRGTLVTVSS
VL: EIVMTQSPATLSVSPGERATLSCRASQSISSSYLAWYQQKPGQAPRLLIYGASTRATGIPARFSGSGSGTEFTLTISSLQSEDFAVYYCQQYYTTPWTFGQGTKVEIKR
notes: IgG1; also called ST2 Antibody 38

Kd: 154 nM
koff: 0.043 s⁻¹
kon: 280000 M⁻¹ s⁻¹
B14: Human ST2 IgG1 Antibody 51 (antibody, V domains shown)
VH: QVQLVQSGAEVKKPGSSVKVSCKASGGSFSRSSISWVRQAPGQGLEWMGGIIPIFGAPVYAQDLQGRVTITADESTSTAYMELSSLRSEDTAVYYCARDHPHCSSTSCYYGMDVWGQGTTVTVSS
VL: B13 VL with S28T, Y93G, T94S, T95S, W97L, Q101G
notes: IgG1; also called ST2 Antibody 51

Kd: 740 nM
koff: 0.12 s⁻¹
kon: 160000 M⁻¹ s⁻¹
B15: Human ST2 IgG1 Antibody 53 (antibody, V domains shown)
VH: QVQLVQSGAEVKKPGSSVKVSCKASGGTFSSYAISWVRQAPGQGLEWMGGIIPIFGTANYAQKFQGRVTITADESTSTAYMELSSLRSEDTAVYYCARVPADYYYYYYGMDVWGQGTTVTVSS
VL: not shown
notes: IgG1; also called ST2 Antibody 53

Kd: 339 nM
koff: 0.042 s⁻¹
kon: 120000 M⁻¹ s⁻¹
B16: Human ST2 IgG1 Antibody 46 (antibody, V domains shown)
VH: EVQLLESGGGLVKPGGSLRLSCAASGFTFSSYWMSWVRQAPGKGLEWVSSISGTSNYMYYADSVKGRFTISRDDSKNTLYLQMNSLKTEDTAVYYCARDRGFLGYFDYWGQGTLVTVSS
VL: DIQMTQSPSSLSASVGDRVTITCQASQYISNYLNWYQQKPGKAPKLLIYGASTLQSGVPSRFSGSGSGTDFTLTISSLQPEDFATYYCQQSQSTPLTFGPGTKVDIKR
notes: IgG1; also called ST2 Antibody 46

Kd: 57 nM
koff: 0.022 s⁻¹
kon: 390000 M⁻¹ s⁻¹
B17: Human ST2 IgG1 Antibody 39 (antibody, V domains shown)
VH: QVQLVQSGAEVKKPGSSVKVSCKASGYTFTSYYMQWVRQAPGQGLEWMGGIIPIFGTANYAQKFQGRVTITADESTSTAYMELSSLRSEDTAVYYCARARFGAVDYWGQGTLVTVSS
VL: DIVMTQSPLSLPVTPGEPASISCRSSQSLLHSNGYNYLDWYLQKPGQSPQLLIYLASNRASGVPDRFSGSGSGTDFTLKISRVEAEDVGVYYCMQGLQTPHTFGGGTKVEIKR
notes: IgG1; also called ST2 Antibody 39

Kd: 22 nM
koff: 0.02 s⁻¹
kon: 920000 M⁻¹ s⁻¹
B18: Human ST2 IgG1 Antibody 45 (antibody, V domains shown)
VH: QVQLVQSGAEVKKPGSSVKVSCKASGGTFSSYAISWVRQAPGQGLEWMGGIVPIFETANYAQKFQGRVTITADESTSTAYMELSSLRSEDTAVYYCARDTPNFDYWGQGTLVTVSS
VL: not shown
notes: IgG1; also called ST2 Antibody 45

Kd: 76 nM
koff: 0.055 s⁻¹
kon: 730000 M⁻¹ s⁻¹
B19: Human ST2 IgG1 Antibody 65 (antibody, V domains shown)
VH: B18 VH with V52I, E56G, T100N, N102D
VL: DIQMTQSPSSLSASVGDRVTITCRASQGISNYLNWYQQKPGKAPKLLIYAASSLQSGVPSRFSGSGSGTDFTLTISSLQPEDFATYYCQQSYRTPITFGQGTRLEIKR
notes: IgG1; also called ST2 Antibody 65

Kd: 99 nM
koff: 0.0024 s⁻¹
kon: 24000 M⁻¹ s⁻¹
B20: Human ST2 IgG1 Antibody 41 (antibody, V domains shown)
VH: QVQLVQSGAEVKKPGSSVKVSCKASGYTFTDYQMHWVRQAPGQGLEWVGVINPGGGSTTYAQTFQGRVTITADESTSTAYMELSSLRSEDTAVYYCARGGVEYSSSWDYYYYYGMDVWGQGTTVTVSS
VL: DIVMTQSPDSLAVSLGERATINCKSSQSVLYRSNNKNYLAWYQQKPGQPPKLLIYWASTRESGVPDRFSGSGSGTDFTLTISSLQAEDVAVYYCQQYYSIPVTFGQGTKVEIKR
notes: IgG1; also called ST2 Antibody 41

Kd: 349 nM
koff: 0.1 s⁻¹
kon: 300000 M⁻¹ s⁻¹
B21: Human ST2 IgG1 Antibody 55 (antibody, V domains shown)
VH: QVQLVQSGAEVKKPGSSVKVSCKASGGTFSSYAISWVRQAPGQGLEWMGDIIPVIDTTNYAQKFQGRVTITADESTSTAYMELSSLRSEDTAVYYCARASGYPFGRWFDPWGQGTLVTVSS
VL: not shown
notes: IgG1; also called ST2 Antibody 55

Kd: 213 nM
koff: 0.075 s⁻¹
kon: 350000 M⁻¹ s⁻¹
B22: Human ST2 IgG1 Antibody 50 (antibody, V domains shown)
VH: QVQLVQSGAEVKKPGASVKVSCKASGAAFNTVAISWVRQAPGQGLEWMGWMNPNSGNTGYAQKFQGRVTMTRDTSTSTVYMELSSLRSEDTAVYYCARTPAAAGTVYFDYWGQGTLVTVSS
VL: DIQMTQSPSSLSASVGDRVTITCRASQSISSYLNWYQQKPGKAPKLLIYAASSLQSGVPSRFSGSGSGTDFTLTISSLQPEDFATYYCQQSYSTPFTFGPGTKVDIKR
notes: IgG1; also called ST2 Antibody 50
